This note sets out measurements from patent CN113045647A (NANJING LEGEND BIOTECH CO LTD, dated 2021).

The target in this assay is SARS-CoV-2-RBD(6×His融合蛋白，来自金斯瑞生物公司) (SARS-CoV-2, UniProt P0DTC2 319-541). The assay is described as follows: ELISA, E. coli expression supernatant on coated SARS-CoV-2-RBD His. A general note: In an ELISA, binding on a coated surface is turned into a signal by an enzyme label.

B1: 人源Fab抗体AS182561 (Fab, E. coli expression supernatant) (Fab, V domains shown, not shown: large carriers)
VH: EVQLVESGGGLVQPGGSLRLSCAASGFNIYSSYMHWVRQAPGKGLEWVASISPSYSYTSYADSVKGRFTISADTSKNTAYLQMNSLRAEDTAVYYCARYSYYGMDYWGQGTLVTVSA
VL: DIQMTQSPSSLSASVGDRVTITCRASQSVSSAVAWYQQKPGKAPKLLIYSASSLYSGVPSRFSGSRSGTDFTLTISSLQPEDFATYYCQQPPWHGLITFGQGTKVEIK
On to B1, for which the binding result is on record as “binds”.
